Data from patent US20110142849A1 (IRM, published 2011).

T1: hβ-Klotho (human, UniProt Q86Z14)
T1 construct: panel antigen of the specificity ELISA
T1 sequence (antigen, looked up): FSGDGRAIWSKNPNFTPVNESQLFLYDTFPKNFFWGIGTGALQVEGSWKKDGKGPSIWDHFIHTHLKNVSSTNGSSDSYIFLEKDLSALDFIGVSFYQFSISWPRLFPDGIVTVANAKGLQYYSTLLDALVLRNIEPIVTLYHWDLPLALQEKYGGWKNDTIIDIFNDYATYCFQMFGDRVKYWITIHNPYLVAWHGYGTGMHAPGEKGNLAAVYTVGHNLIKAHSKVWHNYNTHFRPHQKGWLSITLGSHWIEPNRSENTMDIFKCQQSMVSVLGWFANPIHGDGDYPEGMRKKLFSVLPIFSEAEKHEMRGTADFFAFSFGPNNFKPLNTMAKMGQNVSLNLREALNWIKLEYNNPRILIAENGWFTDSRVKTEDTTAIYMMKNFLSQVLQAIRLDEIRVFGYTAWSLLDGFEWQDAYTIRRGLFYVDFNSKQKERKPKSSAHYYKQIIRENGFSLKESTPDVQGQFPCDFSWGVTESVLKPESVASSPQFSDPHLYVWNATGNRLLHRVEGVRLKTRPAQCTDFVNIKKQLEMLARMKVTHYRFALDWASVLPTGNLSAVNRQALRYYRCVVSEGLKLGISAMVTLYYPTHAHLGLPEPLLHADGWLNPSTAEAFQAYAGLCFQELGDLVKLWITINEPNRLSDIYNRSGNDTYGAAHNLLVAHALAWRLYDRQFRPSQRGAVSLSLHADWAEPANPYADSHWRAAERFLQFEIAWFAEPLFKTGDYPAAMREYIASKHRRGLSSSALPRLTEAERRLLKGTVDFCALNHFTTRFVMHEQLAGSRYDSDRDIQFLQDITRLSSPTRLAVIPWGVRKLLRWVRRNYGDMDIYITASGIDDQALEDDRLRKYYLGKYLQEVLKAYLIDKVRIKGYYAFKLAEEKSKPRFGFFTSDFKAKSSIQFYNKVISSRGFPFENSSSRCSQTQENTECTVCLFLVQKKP

T2: hFGFR4 (human, UniProt P22455)
T2 construct: panel antigen of the specificity ELISA
T2 sequence (antigen, looked up): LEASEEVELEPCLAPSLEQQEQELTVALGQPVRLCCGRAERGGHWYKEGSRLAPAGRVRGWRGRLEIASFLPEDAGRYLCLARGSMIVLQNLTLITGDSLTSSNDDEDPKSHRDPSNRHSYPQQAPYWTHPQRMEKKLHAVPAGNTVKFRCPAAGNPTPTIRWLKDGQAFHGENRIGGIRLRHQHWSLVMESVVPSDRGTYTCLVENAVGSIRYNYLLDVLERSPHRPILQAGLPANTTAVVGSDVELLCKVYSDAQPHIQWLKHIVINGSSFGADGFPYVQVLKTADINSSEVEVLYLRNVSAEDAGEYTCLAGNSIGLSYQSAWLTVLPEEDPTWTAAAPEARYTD

T3: hNotch-3 NRR (human, UniProt Q9UM47)
T3 construct: panel antigen of the specificity ELISA
T3 sequence (antigen, looked up): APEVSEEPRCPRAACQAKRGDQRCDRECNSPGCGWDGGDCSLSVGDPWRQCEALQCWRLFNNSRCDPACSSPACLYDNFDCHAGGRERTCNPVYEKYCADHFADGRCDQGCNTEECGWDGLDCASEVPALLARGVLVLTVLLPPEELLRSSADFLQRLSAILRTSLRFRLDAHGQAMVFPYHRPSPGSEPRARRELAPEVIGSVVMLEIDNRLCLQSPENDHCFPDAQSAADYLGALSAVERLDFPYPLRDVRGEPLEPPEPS

T4: hGITR (human, UniProt Q9Y5U5)
T4 construct: panel antigen of the specificity ELISA
T4 sequence (antigen, looked up): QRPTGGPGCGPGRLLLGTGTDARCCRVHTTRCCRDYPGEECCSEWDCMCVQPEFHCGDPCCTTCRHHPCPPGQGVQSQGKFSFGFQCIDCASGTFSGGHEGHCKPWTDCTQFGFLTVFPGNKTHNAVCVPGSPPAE

T5: hAgr2 (human, UniProt O95994)
T5 construct: panel antigen of the specificity ELISA
T5 sequence (antigen, looked up): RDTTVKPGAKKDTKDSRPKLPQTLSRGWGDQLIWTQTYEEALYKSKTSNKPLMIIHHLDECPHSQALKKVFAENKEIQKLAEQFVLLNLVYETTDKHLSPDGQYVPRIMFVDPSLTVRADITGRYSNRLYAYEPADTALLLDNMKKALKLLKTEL


Legend:
[1] = target: T6, mouse Pcsk9 with C-terminal his6 tag (mouse, UniProt Q80W65 35-694, limits assumed); experiment: not told in the legend
T6 construct: also called murine PCSK9

[2] = target: T7, recombinant human Pcsk9 (aa 31-692) with C-terminal his6 tag (human, UniProt Q8NBP7 31-692); experiment: Solution Equilibrium Titration (SET), MSD read-out
T7 construct: In the TR-FRET assay it carried a fluorophore (hPcsk9-AF); also called hPCSK9; hPcsk9
Protocol: The binding kinetics of IgGs and Fab fragments were analyzed using a Solution Equilibrium Titration (“SET”) assay. Briefly, serial dilutions of hPCSK9 were added to 60 pM IgG or Fab and incubated overnight. A 96-well Standard Bind microtiter plate (Meso Scale Discovery) was coated with 1 μg/ml hPCSK9 and incubated overnight, washed with PBS/0.05% (w/v) Tween 20, blocked with PBS/5% (w/v) BSA, and washed again. The antibody-antigen preparation was added to the PCSK9-coated Standard Bind plate and incubated for 30 min at room temperature. After three additional washing steps, Sulfo-Tag-labeled goat-anti-human-detection antibody (R32AJ-5, Meso Scale Discovery) was added and incubated one hour at room temperature. After washing the plate three times, Read Buffer (Meso Scale Discovery) was added and electrochemiluminescence (ECL) signals were measured by a Sector Imager 6000 (Meso Scale Discovery). ECL data were processed with the excel add-in XLfit 4.3.2 (ID Business Solutions) using the fitting model applicable for antibodies described in Piehler, et al., (1997) J Immunol Methods 201:189-206.

hRspo-2 = target: T8, hRspo-2 (human, UniProt Q6UXX9); experiment: specificity ELISA on coated antigen (88 ng per well), antibody at 2 µg/mL, ABS650
T8 construct: panel antigen of the specificity ELISA
Protocol: (§1) For specificity ELISAs on purified human and mouse IgGs, a 384-well plate was coated with a panel of purified human or mouse antigens at 88 ng per well and incubated overnight at 4° C. The plate was blocked and washed as described above, then 22 μL of purified mouse or human anti-PCSK9 antibody diluted to 2 μg/mL in PBS was added to each well. The plate was incubated for 1 hr at 37° C. then washed with PBST. Anti-mouse Fc antibody (Jackson ImmunoResearch Labs #115-035-071) or anti-human kappa antibody (Sigma #A7164) conjugated to HRP was diluted 1:5000 in PBS (25 μL) and added to each well. The plate was incubated for 1 hr at room temperature, then washed and developed as described above.
(§2) In order to test whether the antigen specificity of the parental mouse antibody LFU720 was retained in the final Humaneered™ IgGs, LGT209, LGT210 and LGT211, binding of the antibodies to a panel of human and mouse antigens (as well as human PCSK9) was tested in an ELISA assay.

hβ-Klotho = target: T1, hβ-Klotho; experiment: as above
Protocol: as §1, §2

hIL-12RB1 = target: T9, hIL-12RB1 (human, UniProt P42701); experiment: as above
T9 construct: panel antigen of the specificity ELISA
Protocol: as §1, §2

hFGFR4 = target: T2, hFGFR4; experiment: as above
Protocol: as §1, §2

hNotch-3 NRR = target: T3, hNotch-3 NRR; experiment: as above
Protocol: as §1, §2

hGITR = target: T4, hGITR; experiment: as above
Protocol: as §1, §2

hAgr2 = target: T5, hAgr2; experiment: as above
Protocol: as §1, §2

hTrkB = target: T10, hTrkB (human, UniProt Q16620); experiment: as above
T10 construct: panel antigen of the specificity ELISA
Protocol: as §1, §2

hDDR1 = target: T11, hDDR1 (human, UniProt Q08345); experiment: as above
T11 construct: panel antigen of the specificity ELISA
Protocol: as §1, §2

[3] = target: T7, recombinant human Pcsk9 (aa 31-692) …; experiment: ForteBio Octet, purified Fab

T7 sequence (Q8NBP7 other isoform, or with tags, fused parts or gaps limits assumed, form in doubt): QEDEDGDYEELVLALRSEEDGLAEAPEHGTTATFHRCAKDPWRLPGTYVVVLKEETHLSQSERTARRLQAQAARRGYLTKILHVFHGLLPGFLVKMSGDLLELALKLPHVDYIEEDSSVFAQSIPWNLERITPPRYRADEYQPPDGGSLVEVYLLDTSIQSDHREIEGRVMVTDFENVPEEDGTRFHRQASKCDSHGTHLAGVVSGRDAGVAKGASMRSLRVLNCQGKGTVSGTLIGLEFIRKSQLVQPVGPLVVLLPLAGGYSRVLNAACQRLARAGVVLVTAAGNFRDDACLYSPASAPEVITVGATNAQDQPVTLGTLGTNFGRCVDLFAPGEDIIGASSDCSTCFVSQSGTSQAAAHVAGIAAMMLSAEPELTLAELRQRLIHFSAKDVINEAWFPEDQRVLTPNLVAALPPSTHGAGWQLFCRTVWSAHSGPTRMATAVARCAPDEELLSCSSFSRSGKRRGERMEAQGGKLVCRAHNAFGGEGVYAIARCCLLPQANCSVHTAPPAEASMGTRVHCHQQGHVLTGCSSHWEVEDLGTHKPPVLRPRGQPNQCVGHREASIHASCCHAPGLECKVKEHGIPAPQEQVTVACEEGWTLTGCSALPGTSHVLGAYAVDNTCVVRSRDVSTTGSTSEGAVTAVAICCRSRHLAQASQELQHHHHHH
T11 sequence (Q08345 21-416 limits assumed): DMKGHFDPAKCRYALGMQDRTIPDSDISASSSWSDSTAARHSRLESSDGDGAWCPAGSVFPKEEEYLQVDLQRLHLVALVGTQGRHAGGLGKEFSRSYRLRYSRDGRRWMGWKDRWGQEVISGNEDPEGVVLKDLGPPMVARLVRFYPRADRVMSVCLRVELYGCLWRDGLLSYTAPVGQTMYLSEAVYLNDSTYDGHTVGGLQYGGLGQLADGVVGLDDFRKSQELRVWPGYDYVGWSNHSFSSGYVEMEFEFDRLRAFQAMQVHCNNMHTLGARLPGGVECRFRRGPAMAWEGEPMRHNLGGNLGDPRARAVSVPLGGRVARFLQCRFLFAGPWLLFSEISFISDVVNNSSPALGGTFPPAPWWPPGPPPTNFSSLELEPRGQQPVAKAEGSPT
T6 sequence (Q80W65 other isoform, or with tags, fused parts or gaps limits assumed): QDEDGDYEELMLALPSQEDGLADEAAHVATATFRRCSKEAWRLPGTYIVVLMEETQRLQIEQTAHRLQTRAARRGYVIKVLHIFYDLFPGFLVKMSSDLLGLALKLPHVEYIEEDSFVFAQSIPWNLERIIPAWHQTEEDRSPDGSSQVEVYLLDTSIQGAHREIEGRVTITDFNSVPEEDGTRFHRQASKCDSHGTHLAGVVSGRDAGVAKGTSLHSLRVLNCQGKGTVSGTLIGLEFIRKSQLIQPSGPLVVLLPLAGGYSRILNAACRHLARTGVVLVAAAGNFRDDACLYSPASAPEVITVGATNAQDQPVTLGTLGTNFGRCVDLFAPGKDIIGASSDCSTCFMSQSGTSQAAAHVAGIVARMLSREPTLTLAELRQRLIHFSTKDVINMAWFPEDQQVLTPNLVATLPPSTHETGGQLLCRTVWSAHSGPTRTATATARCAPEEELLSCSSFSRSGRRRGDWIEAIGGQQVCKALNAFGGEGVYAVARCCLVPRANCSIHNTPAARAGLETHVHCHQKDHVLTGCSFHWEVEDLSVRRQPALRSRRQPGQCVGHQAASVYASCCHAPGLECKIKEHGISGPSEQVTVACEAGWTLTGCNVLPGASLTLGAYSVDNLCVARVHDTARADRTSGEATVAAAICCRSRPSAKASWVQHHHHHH
T10 sequence (Q16620 32-430 limits assumed): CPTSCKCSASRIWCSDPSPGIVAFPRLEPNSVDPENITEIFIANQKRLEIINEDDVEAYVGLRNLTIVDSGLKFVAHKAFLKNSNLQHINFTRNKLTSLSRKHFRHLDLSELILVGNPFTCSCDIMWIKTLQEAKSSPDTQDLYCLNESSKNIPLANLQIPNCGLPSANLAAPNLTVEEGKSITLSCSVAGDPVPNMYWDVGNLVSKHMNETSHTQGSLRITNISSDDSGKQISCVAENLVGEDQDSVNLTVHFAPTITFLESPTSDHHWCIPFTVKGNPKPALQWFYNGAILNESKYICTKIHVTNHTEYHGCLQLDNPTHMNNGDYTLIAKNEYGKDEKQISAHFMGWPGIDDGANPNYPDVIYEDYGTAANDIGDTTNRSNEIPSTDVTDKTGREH
T8 sequence (Q6UXX9 22-243 limits assumed): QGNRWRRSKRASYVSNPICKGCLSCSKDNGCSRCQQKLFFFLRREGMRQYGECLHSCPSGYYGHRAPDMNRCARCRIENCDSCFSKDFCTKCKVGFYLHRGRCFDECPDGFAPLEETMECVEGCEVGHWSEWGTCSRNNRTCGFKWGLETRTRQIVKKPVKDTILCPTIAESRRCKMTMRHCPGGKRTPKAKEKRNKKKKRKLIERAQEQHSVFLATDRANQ

Binder | binding result [1] | Kd [2] [nM] | binding result (hRspo-2) | binding result (hβ-Klotho) | binding result (hIL-12RB1) | binding result (hFGFR4) | binding result (hNotch-3 NRR) | binding result (hGITR) | binding result (hAgr2) | binding result (hTrkB) | binding result (hDDR1) | Kd [3] [nM]
NVP-LGT209 (antibody, human IgG1, Silent human IgG1 kappa made in 293 Freestyle cells; also called pJG04 (Vh) + pJG10 (Vk)) heavy: not shown light: QIVLTQSPATLSVSPGERATLSCRASQSVSYMHWYQQKPGQAPRLLIYGVFRRATGIPDRFSGSGSGTDFTLTIGRLEPEDFAVYYCLQWSSDPPTFGQGTKLEIKRTVAAPSVFIFPPSDEQLKSGTASVVCLLNNFYPREAKVQWKVDNALQSGNSQESVTEQDSKDSTYSLSSTLTLSKADYEKHKVYACEVTHQGLSSPVTKSFNRGEC | no binding | 0.19 | no binding (tested: 2 µg/mL) | no binding (tested: 2 µg/mL) | no binding (tested: 2 µg/mL) | no binding (tested: 2 µg/mL) | no binding (tested: 2 µg/mL) | no binding (tested: 2 µg/mL) | no binding (tested: 2 µg/mL) | no binding (tested: 2 µg/mL) | no binding (tested: 2 µg/mL) | –
NVP-LGT210 (antibody, human IgG1, Silent human IgG1 kappa; also called pJG04 (Vh) + pJG01 (Vk)) heavy: not shown light: EIVMTQSPATLSVSPGERATLSCRASQSVSYMHWYQQKPGQAPRLLIYGVFRRATGIPDRFSGSGSGTDFTLTIGRLEPEDFAVYYCLQWSSDPPTFGQGTKLEIKRTVAAPSVFIFPPSDEQLKSGTASVVCLLNNFYPREAKVQWKVDNALQSGNSQESVTEQDSKDSTYSLSSTLTLSKADYEKHKVYACEVTHQGLSSPVTKSFNRGEC | no binding | 0.15 | no binding (tested: 2 µg/mL) | no binding (tested: 2 µg/mL) | no binding (tested: 2 µg/mL) | no binding (tested: 2 µg/mL) | no binding (tested: 2 µg/mL) | no binding (tested: 2 µg/mL) | no binding (tested: 2 µg/mL) | no binding (tested: 2 µg/mL) | no binding (tested: 2 µg/mL) | –
CDRH1-variant Fab SR079 (Fab, V domains shown, also called SR079 (humaneered)) VH: QVQLVQSGAEVKKPGASVKVSCKASGYTFSTMYMSWVRQAPGQGLEWMGRIDPANGHTNYAQKFQGRVTMTRDTSISTAYMELSRLTSDDTAVYYCARSYYYYAMDYWGQGTLVTVSS VL: EIVMTQSPATLSVSPGERATLSCRASQSVSSSHVAWYQQKPGQAPRLLIYGVFRRATGIPDRFSGSGSGTDFTLTIGRLEPEDFAVYYCLQWSSDPPTFGQGTKLEIK | – | – | – | – | – | – | – | – | – | – | – | 54.2
